Biological target: T1, RSZp21b (Oryza sativa, UniProt Q6K4N0 1-185)
T1 sequence: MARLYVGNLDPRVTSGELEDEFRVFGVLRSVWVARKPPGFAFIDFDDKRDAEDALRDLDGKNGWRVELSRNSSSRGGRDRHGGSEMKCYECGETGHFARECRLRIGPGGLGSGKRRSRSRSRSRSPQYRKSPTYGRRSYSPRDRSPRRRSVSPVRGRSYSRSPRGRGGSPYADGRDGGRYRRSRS
Experiment: EMSA; LightShift Chemiluminescent EMSA Kit (Pierce 20158) per manufacturer; 100-fold unlabeled probe as competitor; buffer, salt, pH, temperature not stated
Conditions: protein: recombinant; tags: His (pET30a, Ni column)

ACUCUUGGCGCAGCAAAAGGGAGAUGCGC (ssRNA) [E3-2]
binding result: binds

Reference: article PMC5382683, “Identified of a novel cis-element regulating the alternative splicing of LcDREB2”
